Measurements published in the supplement of paper PMC9732359.
± gives the uncertainty stated by the source.

Test: protein stability index of a GFP-peptide fusion (yeast GPS) (PSI 1-4); higher = more stable; sorted into four equal gates, so the index is relative within each strain
Method in brief: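 For each peptide, the protein stability index sums the read frequency in every gate after multiplying it by the gate number. Read frequencies came from plasmids that were PCR-amplified from each gate and Illumina-sequenced, with reads assigned to strains by barcodes. The gates were four equal bins of GFP/Cherry fluorescence ratio applied to mid-log yeast in leucine-free medium carrying a pooled library of tiled 17-residue yeast protein peptides fused downstream of GFP on a Cherry-expressing plasmid.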

Sequence | protein stability index (doa10∆) | protein stability index (pdr5∆) | protein stability index (san1∆) | protein stability index (ubr1∆)
DENAPVATNANATTDQE [PRE10] | 3.09 ± 0.23 | 3.33 ± 0.15 | 3.4 ± 0.17 | –
ATEPQMVLFNIYDDWLD [PRP8] | 2.28 ± 0.051 | 2.15 ± 0.047 | 1.6 ± 0.09 | 2.18 ± 0.044
LTSPAFGPHVDVNDVLT [GRR1] | 3.4 ± 0.085 | 3.23 ± 0.062 | 3.35 ± 0.063 | 3.27 ± 0.056
PLDSKDENFASVSPAGP [SNF2] | 3.05 ± 0.11 | 3.12 ± 0.092 | 3.15 ± 0.071 | 2.99 ± 0.06
DNEGVASKSKKKFNMGK [RPC53] | 3.33 ± 0.091 | 3.12 ± 0.13 | 3.15 ± 0.08 | 3.42 ± 0.08
FATNEERQMNFLTNELI [SWI3] | 3.28 ± 0.1 | 2.32 ± 0.07 | 1.96 ± 0.14 | 2.62 ± 0.053
SSKKVFSSNLSYANHLE [YOR098C/NUP1] | 2.31 ± 0.067 | 2.31 ± 0.064 | 2.1 ± 0.078 | 2.48 ± 0.047
TADAEILINTARIHAQN [PRE9] | 2.92 ± 0.094 | 2.85 ± 0.073 | 2.83 ± 0.099 | 2.96 ± 0.072
IEEQGDALQDVEESSEK [DPB4] | 3.02 ± 0.12 | 3.46 ± 0.079 | 3.13 ± 0.059 | 3.41 ± 0.075
PDKLLGVILMFAAILVL [COB] | 1.63 ± 0.11 | 1.62 ± 0.11 | 1.66 ± 0.12 | 1.59 ± 0.11
SGNNYNDINISSIENNI [MED2] | 3.01 ± 0.039 | 3.02 ± 0.036 | 2.89 ± 0.032 | 3.151 ± 0.031
SVSFKVFLLLQAYFSRL [BRR2] | 1.39 ± 0.044 | 1.47 ± 0.063 | 1.22 ± 0.088 | 1.42 ± 0.051
AALGEVASMELKPTNDM [SIR2] | 3.46 ± 0.13 | 3.33 ± 0.12 | 3.52 ± 0.067 | 3.17 ± 0.13
KKSRLGNSFHLMRELLK [PRP8] | 2.58 ± 0.04 | 2.71 ± 0.046 | 2.39 ± 0.049 | 2.55 ± 0.043
SLSNPNSTATMQHNPLA [PGD1] | 2.86 ± 0.04 | 3.1 ± 0.039 | 2.96 ± 0.034 | 2.967 ± 0.029
HFTEIKLNKVDKNELQQ [SIR3] | 2.86 ± 0.056 | 2.88 ± 0.056 | 3 ± 0.04 | 3.07 ± 0.049
ILRMGAFRTIESKSDDN [RRI1] | 2.88 ± 0.094 | 2.8 ± 0.11 | 2.92 ± 0.066 | 2.56 ± 0.065
FHILLKLILEWVAPQES [ECM29] | – | 2.08 ± 0.27 | 1.53 ± 0.17 | 1.77 ± 0.14
LSSIAERVRNFAVIYLC [DIB1] | 1.51 ± 0.083 | 2.04 ± 0.11 | 1.71 ± 0.11 | 1.88 ± 0.12
TLKDYQIKGLQWMVSLF [SNF2] | 3.01 ± 0.1 | 2.54 ± 0.11 | 3.22 ± 0.078 | 2.76 ± 0.1
NGKVQYFLRRQYILQIV [YJL039C/NUP192] | 1.42 ± 0.054 | 1.56 ± 0.07 | 1.33 ± 0.18 | 1.45 ± 0.053
FLKYYGAHKFLDTYLPE [SIR2] | 1.66 ± 0.06 | 1.77 ± 0.061 | 1.37 ± 0.1 | 1.67 ± 0.052
SNIQRNVLFLRLFNNVK [SRP72] | 2.24 ± 0.059 | 2.23 ± 0.054 | 1.49 ± 0.076 | 1.83 ± 0.05
RMRIFASNEVIAKSRYW [RPL20A] | 2 ± 0.049 | 2.57 ± 0.065 | 2.54 ± 0.068 | 2.53 ± 0.035
RAGVSQVLNRYTYSSTL [RPB2] | 2.96 ± 0.044 | 2.9 ± 0.041 | 2.9 ± 0.038 | 2.76 ± 0.036
NNDADKGRSYAYFMVGA [RIP1] | 3.24 ± 0.11 | 3.32 ± 0.1 | 3.29 ± 0.084 | 3.07 ± 0.075

Sequence | protein stability index (doa10∆) | protein stability index (pdr5∆) | protein stability index (san1∆) | protein stability index (ubr1∆)
RSVDRAGRKFKSRRCDD [POP4] | 3.1 ± 0.079 | 3.16 ± 0.078 | 3.33 ± 0.071 | 3.18 ± 0.075
LNDRFQTLSSHLEALQP [PGD1] | 2.64 ± 0.04 | 2.69 ± 0.042 | 2.63 ± 0.04 | 2.54 ± 0.032
IECFKPGDIVRAQVLSL [CSL4] | 2.25 ± 0.15 | 2.04 ± 0.17 | 2.04 ± 0.2 | 2.39 ± 0.16
LAVSTILGKNFDSVIVE [SMC1] | 2.86 ± 0.066 | 2.59 ± 0.064 | 2.44 ± 0.056 | 2.45 ± 0.047
PKCHSRENVFFQSQQRR [RPB9] | 3.14 ± 0.088 | 2.65 ± 0.081 | 2.22 ± 0.089 | 2.65 ± 0.054
LILSGDTTANNGKVQYF [YJL039C/NUP192] | 2.89 ± 0.091 | 2.52 ± 0.086 | 2.9 ± 0.09 | 2.95 ± 0.064
CLDQMTEQFCATLNYID [SRB7] | 2.39 ± 0.043 | 2.87 ± 0.047 | 2.99 ± 0.049 | 2.65 ± 0.039
IDIPLDEQAFYNKDKAE [RPC37] | 3.27 ± 0.18 | 3.38 ± 0.18 | 2.85 ± 0.24 | 3.26 ± 0.14
LAKKWFLQHPDEEYPVK [PRP8] | 3.23 ± 0.14 | 3.15 ± 0.15 | 3.26 ± 0.094 | 2.89 ± 0.16
AAPSAADIKAVVESVGA [RPP2B] | 3.08 ± 0.1 | 3.06 ± 0.073 | 3.05 ± 0.094 | 3.29 ± 0.084
MYTLSAQDEVFSLAFSP [ASC1] | 2.24 ± 0.062 | 2.82 ± 0.085 | 2.78 ± 0.059 | 2.75 ± 0.066
PTKAAQRARDQDSIDIS [GAL11] | 3.21 ± 0.094 | 3.16 ± 0.081 | 3.36 ± 0.077 | 3.22 ± 0.073
AGANDTSNNETNNGNDD [GRR1] | 2.8 ± 0.048 | 2.23 ± 0.066 | 2.87 ± 0.072 | 2.89 ± 0.059
KILVLTGAGVSTSLGIP [SIR2] | 2.35 ± 0.042 | 2.34 ± 0.057 | 2.76 ± 0.054 | 2.69 ± 0.051
QIIVTDGKLEPSTRSNF [YJL039C/NUP192] | 2.38 ± 0.099 | 3.13 ± 0.13 | 2.88 ± 0.11 | 3.32 ± 0.18
DMQSSVDTGLQPQHPHY [YLR018C/POM34] | 2.56 ± 0.043 | 2.86 ± 0.039 | 2.96 ± 0.036 | 2.956 ± 0.029
GRSNEIVKTTTKQRLDA [PRP8] | 3.06 ± 0.073 | 2.78 ± 0.11 | 2.63 ± 0.13 | 3.2 ± 0.052
ASELANPYSSYVSQIRK [YAR002W/NUP60] | 3.22 ± 0.17 | 2.9 ± 0.13 | 2.31 ± 0.17 | 1.92 ± 0.073
LYDSLASTPSIRPDGRL [RRP42] | 2.64 ± 0.14 | 2.81 ± 0.096 | 2.4 ± 0.18 | 2.99 ± 0.088
SGTPITQTESKKEENET [SNF2] | 2.77 ± 0.052 | 2.59 ± 0.045 | 2.94 ± 0.046 | 2.82 ± 0.036
FIRHVAKLNYKNLNPAS [ECM29] | 2.49 ± 0.15 | 1.16 ± 0.1 | – | 1.03 ± 0.076
WGHPTRMLLNLCKSATT [BRR2] | 1.47 ± 0.047 | 1.55 ± 0.046 | 1.75 ± 0.066 | 1.35 ± 0.046
RIIRKKIFIAVVWYQRL [RRI2] | 1.28 ± 0.042 | 1.27 ± 0.036 | 1.27 ± 0.084 | 1.25 ± 0.034
QFEKSRKVSGPRALQPS [RET1] | 2.98 ± 0.085 | 3.19 ± 0.11 | 2.94 ± 0.061 | 3.06 ± 0.066
EDSENPSDWQRNSFIRD [ITC1] | 3.1 ± 0.082 | 3.12 ± 0.069 | 3.14 ± 0.065 | 3.27 ± 0.067
PLPLDLNVQVWHIEETG [ITC1] | 1.87 ± 0.063 | 2.17 ± 0.059 | 2.18 ± 0.089 | 2.17 ± 0.071
